Consider 1 molecule from publication PMC11597096, “Unite and Conquer: Association of Two G-Quadruplex Aptamers Provides Antiproliferative and Antimigration Activity for Cells from High-Grade Glioma Patients”.

As usually defined, the Kd is a measure of binding affinity in units of concentration.

This data set concerns the target PARP1 (Homo sapiens, UniProt P09874 1-1014). Put plainly: BLI; no competitor; kon 6.6 ± 0.34 (10^5 M-1 s-1), koff 1.28 ± 0.04 (printed as 10^2; 10^-2 s-1 implied); BLI: 1x PBS pH 7.4, 25 °C, SAX biosensors, biotinylated oligo loaded at 2 uM, PARP1 2.5-162 nM. Pull-down: 25 mM Tris-HCl pH 7.4, 150 mM NaCl, 1 mM EDTA, 1% NP-40, 5% glycerol, 0.1 mM DTT, room temperature. The following applies: protein: recombinant; label: 5'-biotin; bi-modular G4 with parallel chain stacking.

PARP1, sequence (P09874 whole entry): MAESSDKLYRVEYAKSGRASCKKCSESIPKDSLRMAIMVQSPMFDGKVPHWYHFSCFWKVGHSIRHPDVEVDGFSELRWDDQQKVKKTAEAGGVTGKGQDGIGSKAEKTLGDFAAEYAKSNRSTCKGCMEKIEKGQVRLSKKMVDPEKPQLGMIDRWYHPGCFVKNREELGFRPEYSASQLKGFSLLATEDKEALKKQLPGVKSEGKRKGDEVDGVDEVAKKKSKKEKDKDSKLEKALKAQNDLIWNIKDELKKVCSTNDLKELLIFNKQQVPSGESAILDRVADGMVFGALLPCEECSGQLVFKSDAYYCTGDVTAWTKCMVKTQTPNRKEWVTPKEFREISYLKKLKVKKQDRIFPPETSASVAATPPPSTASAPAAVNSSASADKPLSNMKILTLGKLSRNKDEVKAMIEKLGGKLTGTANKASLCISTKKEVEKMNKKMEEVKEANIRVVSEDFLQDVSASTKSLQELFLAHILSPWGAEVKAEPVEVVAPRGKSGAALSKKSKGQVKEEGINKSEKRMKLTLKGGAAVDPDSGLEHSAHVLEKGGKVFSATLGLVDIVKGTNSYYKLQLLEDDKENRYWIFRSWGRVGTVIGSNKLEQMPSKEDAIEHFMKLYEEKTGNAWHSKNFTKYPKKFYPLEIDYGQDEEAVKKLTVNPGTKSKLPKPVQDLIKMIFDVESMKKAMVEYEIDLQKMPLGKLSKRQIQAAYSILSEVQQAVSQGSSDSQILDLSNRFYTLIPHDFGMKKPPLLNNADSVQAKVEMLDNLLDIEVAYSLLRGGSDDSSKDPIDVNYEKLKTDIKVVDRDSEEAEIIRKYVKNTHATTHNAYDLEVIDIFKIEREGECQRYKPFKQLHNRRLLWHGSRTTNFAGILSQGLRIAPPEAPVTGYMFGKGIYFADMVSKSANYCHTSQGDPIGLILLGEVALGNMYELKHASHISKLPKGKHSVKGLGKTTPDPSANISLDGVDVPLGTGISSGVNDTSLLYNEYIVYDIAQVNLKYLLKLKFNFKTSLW

In the case of GGGTGGGTGGGTGGGTTTGGGTGGGTGGGTGGG (structured_DNA) [bi-(AID-1-T)], the Kd turned out to be 19.4 ± 0.7 nM.
